Measurements reported in US8088892B2, “Inhibitors of proteins from the Rho-GEF family” (Centre National de la Recherche Scientifique (C.N.R.S.), priority 2002, dated 2012).

Experiments:
[1] = target: TrioGEFD2 (Homo sapiens, UniProt O75962); experiment: Yeast Exchange Assay (YEA), RhoA activation; assay type: cell-based; conditions: yeast strain TAT7, reporter gene
From the text: (§1) The wild type GTPase is fused to the LexA DNA binding domain (Matchmaker GAL4 two-hybrid, Clontech Laboratories, Inc., USA) and the effector to the […] (Matchmaker GAL4 two-hybrid, Clontech, Inc., USA). Under these conditions, no binding occurs in the TAT7 strain (De Toledo et al., 2000). Upon addition of a third plasmid expressing the GEF, the GTPase gets activated and binds to its effector, thus leading to the transactivation of the reporter gene LacZ.
TrioGEFD2, a control GEF (GEF720) or an empty vector (−GEF: corresponds to a vector without GEF) were introduced into the YEA system and analysed for their ability to transactivate the reporter gene in absence (left panel) or in the presence (right panel) of TRIPα.
(§2) In order to better characterise the effect of TRIAPα on the Trio full length RhoGEF activity, the yeast exchange assay (YEA) was used, which is a quick and quantitative test derived from the classical two-hybrid system allowing to measure Rho-GEF activity and specificity (De Toledo et al., 2000). This functional assay is based on the fact that the GTPase binds to its effector only if it is activated by a RhoGEF. Briefly, yeasts are transformed with the GTPase fused to the LexA binding domain (LexA), and its effector to the GAL-4 Activating Domain (GAD), and with the adequate Rho-GEF partner in the yeast strain TAT7 (FIG. 7). […]

[2] = target: T1, Full length Trio (RhoG) (Homo sapiens, UniProt O75962); experiment: Yeast Exchange Assay (YEA), full length Trio on RhoG; assay type: cell-based; parameters: key to activation of the reporter gene by full length Trio, RhoG: “+ +” represents a slight activation of the reporter gene; “+ + + +” represents a strong activation of the reporter gene; “−” represents no activation of the reporter gene
T1 construct: Full length Trio was introduced into the YEA; expressed in transfected cells; host or cells: yeast strain TAT7
From the text: as §1
Full length Trio was introduced into the YEA and tested for its ability to activate RhoA and RhoG respectively, in the presence or absence of TRIPα. The table below summarizes the effect of TRIPα on Trio as schematized in this Figure.
as §2

[3] = tested on: Lbc; experiment: In vitro GEF assay on RhoA; assay type: biochemical; parameters: key to in vitro GEF assay (inhibition): +++^2 and +^2 represent respectively a full and a partial (see FIG. 3) inhibitory effect; +++^2 and +^2 represent respectively a full and a partial (see FIG. 3) inhibitory effect; −−^2 represents a lack of inhibitory effect; conditions: for Effect on Lbc exchange activity on RhoA: 20-fold molar excess, Lbc 0.4 μM
Chain of Lbc (Q12802 1994-2333 limits assumed): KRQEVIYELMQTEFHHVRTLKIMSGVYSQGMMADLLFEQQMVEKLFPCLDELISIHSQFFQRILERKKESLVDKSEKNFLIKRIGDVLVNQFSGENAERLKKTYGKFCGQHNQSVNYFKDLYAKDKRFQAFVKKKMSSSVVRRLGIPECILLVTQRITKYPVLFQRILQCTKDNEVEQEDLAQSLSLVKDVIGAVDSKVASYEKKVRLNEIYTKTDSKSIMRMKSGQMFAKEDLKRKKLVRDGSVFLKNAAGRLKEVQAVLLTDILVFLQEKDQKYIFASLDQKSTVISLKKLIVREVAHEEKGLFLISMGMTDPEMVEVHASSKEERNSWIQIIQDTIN
Method: To test the specificity of TRIAPα inhibition in vitro, exchange experiments were performed either on RhoA with different RhoA-specific GEFs: Trio GEFD2 (0.4 μM), Kalirin GEFD2 (KalGEFD2, 1.7 μM), p63RhoGEF (Souchet et al., 2002) (0.4 μM) and Lbc (amino acids 172-598; Zheng et al., 1995) (0.4 μM), or on RhoG, with the RhoG-specific GEF domain of Trio (TrioGEFD1, 0.1 μM). Exchange assays were performed with the recombinant GEFs as described in FIG. 2A. Different concentrations of RhoGEFs were used to yield a similar nucleotide exchange efficiency. For each exchange factor, three independent experiments were done in absence (black bar) or in the presence (grey bar) of a 20-fold molar excess of TRIAPα.
An in vitro guanine nucleotide exchange (GEF) assay was used to test whether the TrioGEFD2-binding aptamers could inhibit the catalytic activity of TrioGEFD2 towards RhoA. For this purpose, the aptamers TRIAPα, TRIAPβ and TRIAPγ (including the Trx gene) were excised from pEG202 as EcoRI/NotI fragments and cloned into pGEX4T1 EcoRI/NotI. The aptamers were then expressed and purified from bacteria as GST fusion proteins, using standard procedures (Smith and Johnson, 1988). GTPase-GST fusion proteins were prepared, loaded with [^3H]GDP and the guanine nucleotide release assays were performed as described (Debant et al., 1996), using recombinant GST-TrioGEFD2 (a.a. 1848-2298), TrioDH2 (a.a. 1848-2096). For each point, 0.3 μM GTPase was mixed with or without 0.4 μM GEF in presence of non-labeled GTP, and the reaction mix was filtered after 0 min and 15 mm reaction at 25° C. The catalytic activity of TrioGEFD2 was thus measured by the decrease of the GTPase-associated radioactivity. The results are expressed as the ratio “exchange after 15 min over exchange after 0 min” (% bound [^3H]GDP-RhoA). To measure the effect of the aptamers on the exchange activity, a 20-fold molar excess of GST-TRIAPs was pre-incubated with GEFD2 (or GEFD1) for 30 min on ice before the exchange assay was carried out. For each experiment, data were obtained in triplicate.
The effect of GST-TRIAPα on other Rho-GEFs that display in vitro exchange activity on RhoA was next tested to investigate whether TRIAPα inhibition was specific of TrioGEFD2. The exchange activities of the RhoGEF Lbc (a.a. 1-424, FIG. 3)(Zheng et al., 1995) and Dbl (a.a. 495-826, data not shown) were not affected by GST-TRIAPα. The effect of GST-TRIAPα on the catalytic activity of RhoGEFs that display a high sequence similarity with TrioGEFD2 was then tested: the recently identified RhoA-specific p63RhoGEF (Souchet et al., 2002) (a.a. 149-374, 71.5% identity with TrioGEFD2, 0.4 μM) and the second Rho-GEF domain of the Trio family member Kalirin (KalGEFD2, a.a. 1850-2190, 65% identity with TrioGEFD2, 1.7 μM). Different concentrations of RhoGEFs were used to yield similar nucleotide exchange […]. For each exchange factor, three independent experiments were done in absence or in the presence of a 20-fold molar excess of GST-TRIAPα. […] Thus, the in vitro inhibitory activity of TRIAPα was selective for TrioGEFD2 (see table I for summary of the tested RhoGEFs).

Row | activation of the reporter gene by full length Trio, RhoG ([2]; +TRIPα (−TRIPα: + +)) | Molecule | Inhibition of TrioGEFD2-mediated RhoA activation in the YEA system [1] | Effect on Lbc exchange activity on RhoA [3] | Effect on Lbc exchange activity on RhoA ([3]; listed as GST-TRIAPα) | in vitro GEF assay (inhibition) ([3]; RhoGEF Lbc) | Effect on full-length Trio (TrioGEFD1) activation of RhoG in the YEA system [2]
1 | + + + + | AREGADGAICGYNLATLVMLGPSERVFCPLCEPCSSDIYELM [TRIPα, 42-amino acid peptide corresponding to the variable region of TRIAPα] | inhibits TrioGEFD2-mediated RhoA activation |  |  |  | 
2 |  | TRIAPα: aptamer of 154 amino acids: variable region of 42 amino acids inserted into the thioredoxin protein; tested as GST fusion (protein) MSDKIIHLTDDSFDTDVLKADGAILVDFWAEWCGPAREGADGAICGYNLATLVMLGPSERVFCPLCEPCSSDIYELMGPCKMIAPILDEIADEYQGKLTVAKLNIDQNPGTAPKYGIRGIPTLLLFKNGEVASATKVGALSKGQLKEFLDANLA | blocked specifically TrioGEFD2-mediated activation of RhoA | has no effect | not affected | −−^2 | greatly enhanced TrioGEFD1 activation of RhoG
